Measured values published in US20060040319A1, “Multiple sensor-containing active modified polypeptides, preparation and uses thereof” (priority 2000, published 2006).
“Also recorded” adds a separate entry of the source.

Columns and labels:
[1] = target: T1, GST fusion of mouse c-Abl containing only the SH2 and kinase domains (Mus musculus, UniProt P00520); test: Kinase assay with truncated c-Abl containing only the SH2 and kinase domains; assay type: biochemical; details: truncated c-Abl (SH2 and kinase domains only), over 60 min
T1 construct: a GST fusion of mouse c-Abl containing only the SH2 and kinase domains; made in house; host or cells: E. coli BL21
T1 sequence (P00520 127-493): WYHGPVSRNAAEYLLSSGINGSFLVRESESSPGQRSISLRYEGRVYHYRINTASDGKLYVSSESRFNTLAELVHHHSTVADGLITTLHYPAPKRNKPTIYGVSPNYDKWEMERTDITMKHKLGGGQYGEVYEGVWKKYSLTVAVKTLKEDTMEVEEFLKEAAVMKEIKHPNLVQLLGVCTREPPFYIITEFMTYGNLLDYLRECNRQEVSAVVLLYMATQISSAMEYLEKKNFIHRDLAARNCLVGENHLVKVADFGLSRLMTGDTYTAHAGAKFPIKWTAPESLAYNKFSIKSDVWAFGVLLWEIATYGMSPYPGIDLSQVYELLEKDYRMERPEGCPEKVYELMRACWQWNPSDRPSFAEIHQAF
Description: Purified Rh-(Crk-II)-Fl prepared as described in Example I was treated with either full length recombinant (Baculovirus/SF9) mouse c-Abl or a GST fusion of mouse c-Abl containing only the SH2 and kinase domains (expressed in E. coli BL21 essentially as described (19)). In a typical experiment, the appropriate c-Abl construct was incubated in reaction buffer (2 mM DTT, 0.2 mg/ml BSA, 10 mM Mg^2+, 50 mM Tris, pH 7.4, either with or without ATP (500 μM)) for 5 min at 30° C. before addition of Rh-(Crk-II)-Fl (final concentration=0.25 μM). In order to ensure that equal amounts of active c-Abl enzyme were added to each reaction, preliminary titration experiments were carried out using an optimized peptide substrate for c-Abl (EAIYAAPFAKKK (SEQ ID No:2) (20)). […] In all cases, aliquots of the reaction mixtures were removed at ˜1 min and 60 min, quenched with EDTA (final conc.=40 mM), and then analyzed by native-PAGE and/or Western blotting and fluorescence spectroscopy. […]
Fluorescence Spectroscopy. […] Excitation was at 490 nm with a 2.5 nm slit and the fluorescence emission was monitored at 520 nm and 580 nm through a 4 nm slit. […] Rh-(Crk-II)-Fl was treated with full length recombinant c-Abl and aliquots of the reaction mixture were analyzed by fluorescence spectroscopy and western blotting at ˜1 min and 60 min time-points. […]

[2] = target: T2, full length recombinant c-Abl (Mus musculus, UniProt P00520); test: Kinase assay: phosphorylation of Rh-(Crk-II)-Fl by full length c-Abl (FRET, western blot, native PAGE); assay type: biochemical
T2 construct: full length recombinant (Baculovirus/SF9) mouse c-Abl; made in house; host or cells: Baculovirus/SF9
Description: Purified Rh-(Crk-II)-Fl prepared as described in Example I was treated with either full length recombinant (Baculovirus/SF9) mouse c-Abl or a GST fusion of mouse c-Abl containing only the SH2 and kinase domains (expressed in E. coli BL21 essentially as described (19)). In a typical experiment, the appropriate c-Abl construct was incubated in reaction buffer (2 mM DTT, 0.2 mg/ml BSA, 10 mM Mg^2+, 50 mM Tris, pH 7.4, either with or without ATP (500 μM)) for 5 min at 30° C. before addition of Rh-(Crk-II)-Fl (final concentration=0.25 μM). In order to ensure that equal amounts of active c-Abl enzyme were added to each reaction, preliminary titration experiments were carried out using an optimized peptide substrate for c-Abl (EAIYAAPFAKKK (SEQ ID No:2) (20)). For peptide inhibition studies, Rh-(Crk-II)-Fl was pre-incubated for 30 min with a high affinity ligand for the N-SH3 domain of Crk, PPPALPPKRRR-NH2 (SEQ ID No:7) (21), such that the final concentration of ligand in the kinase assay was 12 μM. In all cases, aliquots of the reaction mixtures were removed at ˜1 min and 60 min, quenched with EDTA (final conc.=40 mM), and then analyzed by native-PAGE and/or Western blotting and fluorescence spectroscopy.
Western Blotting. Standard procedures were used to probe for tyrosine phosphorylation using a mouse monoclonal anti-phosphotyrosine primary antibody (PY20, Santa Cruz Biotechnology) and a HPO-conjugated goat anti-mouse polyclonal secondary antibody (Amersham Pharmacia).
Fluorescence Spectroscopy. Experiments were conducted at 18° C. in a stirred 0.5 cm-pathlength cell using a SPEX FL3-11C fluorimeter. Samples from the reactions (50 μl) were diluted into 2 mM DTT, 0.4 mg/mL BSA, 140 mM NaCl, 50 mM Tris, pH 7.4 buffer (450 μl) for analysis. Excitation was at 490 nm with a 2.5 nm slit and the fluorescence emission was monitored at 520 nm and 580 nm through a 4 nm slit. Purified Rh-(Crk-II)-Fl was assayed for its ability to biosense Crk-II phosphorylation by the c-Abl protein tyrosine kinase. As indicated previously, phosphorylation by c-Abl leads to an intramolecular association between a phosphotyrosine motif and the Crk-II SH2 domain, which could potentially be reported by the dual-labeled Crk-II derivative (FIG. 1). Rh-(Crk-II)-Fl was treated with full length recombinant c-Abl and aliquots of the reaction mixture were analyzed by fluorescence spectroscopy and western blotting at ˜1 min and 60 min time-points. […] In contrast, when ATP was included in the reaction mixture, a phosphorylation-dependent increase in the emission intensity ratio (a decrease in FRET) was consistently observed.

T2 sequence (P00520 whole entry): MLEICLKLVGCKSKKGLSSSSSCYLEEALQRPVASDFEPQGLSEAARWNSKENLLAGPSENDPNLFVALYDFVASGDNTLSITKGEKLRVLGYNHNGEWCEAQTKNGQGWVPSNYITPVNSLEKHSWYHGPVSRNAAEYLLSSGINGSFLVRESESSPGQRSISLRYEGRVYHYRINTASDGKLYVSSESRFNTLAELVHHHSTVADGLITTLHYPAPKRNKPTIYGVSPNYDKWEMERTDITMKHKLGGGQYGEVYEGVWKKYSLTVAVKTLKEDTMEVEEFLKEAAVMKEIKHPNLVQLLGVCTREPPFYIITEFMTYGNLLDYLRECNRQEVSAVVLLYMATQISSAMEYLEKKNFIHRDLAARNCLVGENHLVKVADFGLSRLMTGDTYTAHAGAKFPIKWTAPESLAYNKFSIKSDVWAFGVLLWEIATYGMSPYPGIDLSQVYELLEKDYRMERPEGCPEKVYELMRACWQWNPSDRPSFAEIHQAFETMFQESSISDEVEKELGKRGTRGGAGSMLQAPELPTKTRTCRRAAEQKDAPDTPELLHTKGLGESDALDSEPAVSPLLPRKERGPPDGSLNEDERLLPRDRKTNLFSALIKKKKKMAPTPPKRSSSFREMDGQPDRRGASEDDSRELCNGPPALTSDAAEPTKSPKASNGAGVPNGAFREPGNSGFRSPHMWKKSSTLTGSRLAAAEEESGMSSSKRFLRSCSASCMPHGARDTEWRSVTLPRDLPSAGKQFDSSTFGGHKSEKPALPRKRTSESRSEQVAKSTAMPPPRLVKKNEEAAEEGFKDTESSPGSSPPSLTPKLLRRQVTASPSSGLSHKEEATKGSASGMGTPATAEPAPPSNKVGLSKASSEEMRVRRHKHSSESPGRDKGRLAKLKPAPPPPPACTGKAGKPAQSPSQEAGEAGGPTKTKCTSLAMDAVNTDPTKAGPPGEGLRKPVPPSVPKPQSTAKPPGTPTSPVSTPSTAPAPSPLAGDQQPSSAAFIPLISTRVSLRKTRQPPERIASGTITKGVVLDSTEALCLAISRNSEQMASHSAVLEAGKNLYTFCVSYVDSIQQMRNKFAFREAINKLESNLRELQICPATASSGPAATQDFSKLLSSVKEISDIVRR

B1: Rh-(Crk-II)-Fl: semi-synthetic mouse Crk-II adapter protein with tetramethylrhodamine and fluorescein FRET pair at the N- and C-termini (protein)
chain: KRGCAGNFDSEERSSWYWGRLSRQEAVALLQGQRHGVFLVRDSSTSPGDYVLSVSENSRVSHYIINSSGPRPPVPPSPAQPPPGVSPSRLRIGDQEFDSLPALLEFYKIHYLDTTTLIEPVARSRQGSGVILRQEEAEYVRALFDFNGNDEEDLPFKKGDILRIRDKPEEQWWNAEDSEGKRGMIPVPYVEKYRPASASVSALIGGNQEGSHPQPLGGPEPGPYAQPSVNTPLPNLQNGPIYARVIQKRVPNAYDKTALALEVGELVKVTKINVSGQWEGECNGKRGHFPFTHVRLLDQQNPDEDFSGCGXGLEVLFQ
modifications: not fully specified; tetramethylrhodamine N-terminal, fluorescein C-terminal; Protein Kinase Target
notes: semi-synthetic mouse Crk-II adapter protein with tetramethylrhodamine and fluorescein FRET pair at the N- and C-termini
phosphorylation by fluorescence and western blotting analysis [1]: did not lead to any detectable phosphorylation; also recorded: complete lack of phosphorylation
change in FRET ([2]; absence of ATP): essentially no change in FRET
phosphorylation detected with anti-phosphotyrosine monoclonal antibody (western) ([2]; absence of ATP): no Rh-(Crk-II)-Fl phosphorylation could be detected
extent of phosphorylation by native PAGE mobility ([2]; with ATP, after 1 h): completely phosphorylated
decrease in FRET (increase in Fl:Rh emission intensity ratio) ([2]; with ATP, after 60 min): ~3%
